Key:
[1] = system: monkeys; settings: monkey, in vivo
[2] = system: rats and monkeys; assay: Toxicity studies in rats and monkeys: common PD and safety findings; format: in vivo; settings: GLP pivotal nonclinical studies
Text: The single- and repeat-dose toxicity of BMS-986326 were characterized in a series of studies in rats for up to 2 weeks and in monkeys up to 12 weeks using selected dosing frequencies. Pivotal good laboratory practice (GLP) repeat-dose studies in both species employed SC administration of BMS-986326 and consisted of two 2-week studies in rats using differing dose frequencies (once weekly [QW] vs twice weekly [2QW]), a 2-week once weekly dosing study in monkeys, and a 12-week (once every 3 week, Q3W) dosing study in monkeys. In addition, single-dose exploratory studies were initially completed in both rats and monkeys to explore the tolerability of BMS-986326, and a single-dose GLP IV toxicity and cardiovascular safety study was also completed in telemeterized monkeys using IV dosing to support IV administration in the first-in-human (FIH) single-ascending dose (SAD) study (IM034001).
Intended and unintended PD effects occurred in a dose-dependent manner across all doses of each toxicity study and were generally more pronounced in monkeys than in rats. As an IL-2R agonist, BMS-986326 induced maximal phosphorylation of STAT5 in Treg cells (72% to 95%) across all doses in rats and monkeys, increased Treg cells (up to 63× in monkeys) and/or CD25 expression on CD4 Tregs (up to 4.5× in rats), and raised serum levels of IL-10 (up to 2× in rats and 87× in monkeys). […]

BMS-986326: recombinant fusion protein of human IL2 and extracellular domain of human CD25, (GGGS)3 linker, non-covalent self-blocking homodimer
decreased platelets [1]: 0.9-0.6
decreased red cell mass versus pretest [1]: 0.9-0.6
doses with adverse inflammation in eye choroid and choroid plexus of brain [1]: ≥ 0.25 mg/kg/week
increased liver weights [1]: 16-75%
number of tissues affected by mixed cell inflammation [1]: 16-28
clinical signs ([1]; 0.75 mg/kg): adverse clinical signs of toxicity
increased heart rate ([1]; 0.75 mg/kg): 25-28%
mean AUC[0-168 h] ([1]; 0.75 mg/kg): ≥ 601 µg·h/mL
capillary leak syndrome (CLS) [2]: has not been observed

— patent US20240325495A1, “FUSION PROTEINS FOR THE TREATMENT OF DISEASE” (Bristol-Myers Squibb Company, priority 2020, published 2024)
